Results from patent US20230137139A1, “BIOSYNTHESIS OF CANNABINOIDS AND C[…]” (priority 2020, published 2023).

System: CBCA production
Test: In vivo TS activity assay, Example 4 CBCAS enzymes with and without signal peptides, no pH adjustment
Assay type: cell-based
Conditions: strains with (Y) or without (N) N-terminal and C-terminal signal peptides; no pH adjustment at Day 4; S. cerevisiae
Procedure: An assay to detect TS activity was conducted as follows: each thawed glycerol stock of candidate CBCAS transformants was stamped into a well of YEP+4% dextrose media. Samples were incubated at 30° C. in a shaking incubator for 2 days. A portion of each of the resulting cultures was stamped into a well of YEP+4% galactose+1 mM olivetolic acid (FIG. 1 Structure 6a). Samples were incubated at 20° C. and shaken in a shaking incubator for 4 days. Every 24 hours during those 4 days, 2% galactose and 1 mM olivetolic acid were spiked into the cultures. Sodium citrate buffer adjusted to pH 5.5 was added to each well at a final concentration of 100 mM. Samples were incubated at 20° C. and shaken in a shaking incubator for 2 days. A portion of each of the resulting production cultures was stamped into a well of phosphate buffered saline (PBS). Optical measurements were taken on a plate reader, with absorbance measured at 600 nm and fluorescence at 528 nm with 485 nm excitation. Samples were incubated at 30° C. in a shaking incubator for 2 days. 100% methanol was stamped into the production cultures in half-height deepwell plates. Plates were heat sealed and frozen. Samples were then thawed for 30 min and spun down at 4° C. A portion of the supernatant was stamped into half-area 96 well plates. CBCA, THCA, and CBDA production in the samples was quantified via liquid chromatography-mass spectrometry (LC-MS).
A library of 20 CBCAS enzymes selected from Example 1 and 3 was synthesized, including versions of the CBCAS enzymes with and without the N-terminal MFalpha2 signal peptide (SEQ ID NO: 16) and C-terminal HDEL signal peptide (SEQ ID NO: 17). Each candidate enzyme expression construct was transformed into an S. cerevisiae CEN.PK strain that also expressed a prenyltransferase enzyme capable of catalyzing reaction R^4 in FIG. 2. Strain t861555 expressing the A. niger CBCAS identified in Example 1, carrying both the Mfalpha2 and HDEL signal peptides was included in the library screen as a positive control for enzyme activity. Strain t861565 expressed the same A. niger CBCAS without the Mfalpha2 and HDEL signal peptides.
The strains were screened using the assay described in Example 1 with the following exception: at Day 4 samples were not subjected to a pH adjustment and a further 2 days of incubation at 20° C.

B1: t861567 (protein)
chain: MDSNTWEATFGSGFLLGELDKHLHANGNRAMAHGTCPGVGMGGHATIGGIGPSSRLWGTTLDHVLQVEVVTADGKIQRASKTQNPDLFWALQGAGASFGIITEFVVRTEPEPGSVVEYTYSVSLGKQSDMAPLYKQWQALVGDPSLDRRFTSLFIAEPLGVLITGTFYGTMYEWHASGIPDKLPRGPISVTVMDSLGSLAHIAEKTGLYLTNVPTSFASRSLALRQQDLLSEQSIDDLFEYMGSANADTPLWFVIFDNEGGAIADVPDNSTAYPHRDKVIVYQSYSVGLLGVTDKMIKFLDGVQDIVQRGAPNAHTTYAGYINPQLDRKAAQQFYWGDKLPRLQQIKKQYDPNNVFCNPQSIYPAEDMSDG
For B1, the “Average CBCA” value was 0.00 µg/L.

B2: t861588 (protein)
chain: MGNTTSIAAGRDCLLSAVGGNHAHVAFQDQLLYQVTAVEPYNLNIPVTPAAVTYPQSADEIAAVVKCASEYGYKVQARSGGHSFGNYGLGGEDGAIVVEMKHFNQFSMDESTYTATIGPGITLGDLDTALYNAGHRAMAHGICPTIRTGGHLTMGGLGPTARQWGLALDHVEEVEVVLANSSIVRASNTQNQDILFAIKGAAASFGIVTEFKVRTEAAPGVAVQYSFTFNLGTPAEKAKLVKDWQAFIAQEDLTWKFYSNMNIFDGQIILEGIYFGSKEEYDALGLEKRFPSSEAGTVLVLTDWLGMVGHGLEDVILRLVGNTPTWFYAKSLGFTPRALIPDSAIDEFLNYIHENTPGTVSWFVTLSLEGGAINKVPGDATAYGHRDVLFWVQIFMINPLGPVSQTTYGFADGLYDVLAKAVPNSAGHAYLGCPDPRMPNAQQAYWRSNLPRLEELKGELDPKDIFHNPQGVMVVS
modifications: N- and C-terminal signal peptides
In the case of B2, the “Average CBCA” value is reported as 42686.95 µg/L.

B3: t861551 (protein)
chain: MGNTTSIAGRDCLISALGGNSALAVFPNQLLWTADVHEYNLNLPVTPAAITYPETAEQIAGIVKCASDYDYKVQARSGGHSFGNYGLGGTDGAVVVDMKHFNQFSMDDQTYEAVIGPGTTLNDVDIELYNNGKRAMAHGVCPTIKTGGHFTIGGLGPTARQWGLALDHVEEVEVVLANSSIVRASNTQNQDVFFAVKGAAADFGIVTEFKVRTEPAPGLAVQYSYTFNLGSTAEKAQFVKDWQSFISAKNLTRQFYNNMVIFDGDIILEGLFFGSKEQYDALGLEDHFAPKNPGNILVLTDWLGMVGHALEDTILKLVGNTPTWFYAKSLGFRQDTLIPSAGIDQFFEYIANHTAGTPAWFVTLSLEGGAINDVAEDATAYAHRDVLFWVQLFMVNPLGPISETTYEFTDGLYDVLARAVPESVGHAYLGCPDPRMENAPQKYWRTNLPRLQELKEELDPKNTFHHPQGVIPA
For B3, the “Average CBCA” value was 17501.94 µg/L.

B4: t861566 (protein)
chain: MGNTTSIAGRDCLVSALGGNSALAAFPNQLLWTADVHEYNLNLPVTPAAITYPETAEQIAGIVKCASDYDYKVQARSGGHSFGNYGLGGTDGAVVVDMKHFNQFSMNDQTYEAVIGPGTTLNDVDIELYNNGKRAMAHGVCPTIKTGGHFTIGGLGPTARQWGLALDHVEEVEVVLANSSIVRASNTQNQDVFFAVKGAAADFGIVTEFKVRTEPAPGLAVQYSYTFNLGSTAEKAQFVKDWQSFISAKNLTRQFYNNMVIFDGDIILEGLFFGSKEQYDALGLEDHFAPKNPGNILVLTDWLGMVGHALEDTILKLVGNTPTWFYAKSLGFRQDTLIPSAGIDEFFEYIANHTAGTPAWFVTLSLEGGAINDVAEDATAYAHRDVLFWVQLFMVNPLGPISETTYEFTDGLYDVLARAVPESVGHAYLGCPDPRMENAPQKYWRTNLPRLQELKEELDPKNTFHHPQGVIPA
For B4, the “Average CBCA” value was 61918.09 µg/L.

B5: t861587 (protein)
chain: MGNTTSIAGRDCLVSALGGNSALAAFPNQLLWTADVHEYNLNLPVTPAAITYPETAEQIAGIVKCASDYDYKVQARSGGHSFGNYGLGGTDGAVVVDMKHFNQFSMNDQTYEAVIGPGTTLNDVDIELYNNGKRAMAHGVCPTIKTGGHFTIGGLGPTARQWGLALDHVEEVEVVLANSSIVRASNTQNQDVFFAVKGAAADFGIVTEFKVRTEPAPGLAVQYSYTFNLGSTAEKAQFVKDWQSFISAKNLTRQFYNNMVIFDGDIILEGLFFGSKEQYDALGLEDHFAPKNPGNILVLTDWLGMVGHALEDTILKLVGNTPTWFYAKSLGFRQDTLIPSAGIDEFFEYIANHTAGTPAWFVTLSLEGGAINDVAEDATAYAHRDVLFWVQLFMVNPLGPISETTYEFTDGLYDVLARAVPESVGHAYLGCPDPRMENAPQKYWRTNLPRLQELKEELDPKNTFHHPQGVIPA
B5 was tested, and the “Average CBCA” value was 82883.01 µg/L.

B6: t861592 (protein)
chain: MGNTTSIAGRDCLISALGGNSALAAFPNQLLWTADVHEYNLNLPVTPAAITYPETAEQIAGIVKCASDYDYKVQARSGGHSFGNYGLGGTDGAVVVDMKHFNQFSMDDQTYEAVIGPGTTLNDVDIELYNNGKRAMAHGVCPTIKTGGHFTIGGLGPTARQWGLALDHVEEVEVVLANSSIVRASNTQNQDVLFAVKGAAADFGIVTEFKVRTEPAPGLAVQYSYTFNLGSTAEKAQFVKDWQSFISAKNLTRQFYNNMVIFDGDIILEGLFFGSKEQYDALGLEDHFAPKNPGNILVLTDWLGMVGHALEDTILKLVGNTPTWFYAKSLGFRQDTLIPSAGIDEFFEYIDNHTAGTPAWFVTLSLEGGAINDVAEDATAYAHRDVLFWVQLFMVNPLGPISETTYEFTDGLYDVLARAVPESVGHAYLGCPDPRMENAPQKYWRTNLPRLQELKEELDPKNTFHHPQGVIPA
For B6, the “Average CBCA” value was 74584.36 µg/L.

B7: t861577 (protein)
chain: MGNTTSIAGRDCLISALGGNSALAAFPNQLLWTADVHEYNLNLPVTPAAITYPETAEQIAGIVKCASDYDYKVQARSGGHSFGNYGLGGTDGAVVVDMKHFNQFSMDDQTYEAVIGPGTTLNDVDIELYNNGKRAMAHGVCPTIKTGGHFTIGGLGPTARQWGLALDHVEEVEVVLANSSIVRASNTQNQDVLFAVKGAAADFGIVTEFKVRTEPAPGLAVQYSYTFNLGSTAEKAQFVKDWQSFISAKNLTRQFYNNMVIFDGDIILEGLFFGSKEQYDALGLEDHFAPKNPGNILVLTDWLGMVGHALEDTILKLVGNTPTWFYAKSLGFRQDTLIPSAGIDEFFEYIDNHTAGTPAWFVTLSLEGGAINDVAEDATAYAHRDVLFWVQLFMVNPLGPISETTYEFTDGLYDVLARAVPESVGHAYLGCPDPRMENAPQKYWRTNLPRLQELKEELDPKNTFHHPQGVIPA
With B7 the “Average CBCA” value was 36869.19 µg/L.

B8: t861583 (protein)
chain: MGNTTSIAGRDCLISALGGNSALAVFPNELLWTADVHEYNLNLPVTPAAITYPETAAQIAGVVKCASDYDYKVQARSGGHSFGNYGLGGADGAVVVDMKHFTQFSMDDETYEAVIGPGTTLNDVDIELYNNGKRAMAHGVCPTIKTGGHFTIGGLGPTARQWGLALDHVEEVEVVLANSSIVRASNTQNQDVFFAVKGAAANFGIVTEFKVRTEPAPGLAVQYSYTFNLGSTAEKAQFVKDWQSFISAKNLTRQFYNNMVIFDGDIILEGLFFGSKEQYDALGLEDHFAPKNPGNILVLTDWLGMVGHALEDTILKLVGNTPTWFYAKSLGFRQDTLIPSAGIDEFFEYIANHTAGTPAWFVTLSLEGGAINDVAEDATAYAHRDVLFWVQLFMVNPLGPISDTTYEFTDGLYDVLARAVPESVGHAYLGCPDPRMEDAQQKYWRTNLPRLQELKEELDPKNTFHHPQGVMPA
In the case of B8, the “Average CBCA” value is reported as 59260.52 µg/L.

B9: t861589 (protein)
chain: MGNTTSIAGRDCLISALGGNSALAVFPNELLWTADVHEYNLNLPVTPAAITYPETAAQIAGVVKCASDYDYKVQARSGGHSFGNYGLGGADGAVVVDMKHFTQFSMDDETYEAVIGPGTTLNDVDIELYNNGKRAMAHGVCPTIKTGGHFTIGGLGPTARQWGLALDHVEEVEVVLANSSIVRASNTQNQDVFFAVKGAAANFGIVTEFKVRTEPAPGLAVQYSYTFNLGSTAEKAQFVKDWQSFISAKNLTRQFYNNMVIFDGDIILEGLFFGSKEQYDALGLEDHFAPKNPGNILVLTDWLGMVGHALEDTILKLVGNTPTWFYAKSLGFRQDTLIPSAGIDEFFEYIANHTAGTPAWFVTLSLEGGAINDVAEDATAYAHRDVLFWVQLFMVNPLGPISDTTYEFTDGLYDVLARAVPESVGHAYLGCPDPRMEDAQQKYWRTNLPRLQELKEELDPKNTFHHPQGVMPA
With B9 the “Average CBCA” value was 95796.21 µg/L.

B10: t861568 (protein)
chain: MGNSASVAGRACFVAAVGHDPNLVTFRGDLLYEFRIQPSYNLAIPVHPTVVTYPKTTAQVAEIVSCAAAQNYKMQAYSGGHSYGNYGLGGEDGHVVVDLKNFQDFTMDPDTHVATIGAGTSLGDLQDRLWHAGGRAMAHGSCPQVGVGGHFTIGGLGMMSRQWGMSLDHVVEAQVVLANSSVVTASDTQNQDIFWAIKGAAASFGIVTKFKVRTHGVPKAAIQYQYTFSQGDVLDKVKLFMAWQNIVAKPNLTRNFSTELTIFQDGIMIMGSFFGTRDEFHKFELENDLPLQGLGNVAYITNWLSLVAHTAEDYLLRLTGNVLTSFYAKSLSFTADELFNEQGLVTLFTYLDAAPKGTPTWWVIFDLEGGATNDVPVNATSYAHRDAIMWMQSYAVAGFEPPGFIIKRFLNRLHGVVIGNRAPGAVRSYPGYVDPYLRNAQETYWGPNLARLQDIKTAVDPDDVFHNPQSVKVNSLSPPDPGSHDV
In the case of B10, the “Average CBCA” value is reported as 0.00 µg/L.
